{"source": "IntAct's records for PubMed 22081014", "parents": {"B1": {"name": "SH2 domain-containing protein 3C (Homo sapiens), Q8N5H7-2 (parent)", "chain": "MTAVGRRCPALGSRGAAGEPEAGSDYVKFSKEKYILDSSPEKLHKELEEELKLSSTDLRSHAWYHGRIPREVSETLVQRNGDFLIRDSLTSLGDYVLTCRWRNQALHFKINKVVVKAGESYTHIQYLFEQESFDHVPALVRYHVGSRKAVSEQSGAIIYCPVNRTFPLRYLEASYGLGQGSSKPASPVSPSGPKGSHMKRRSVTMTDGLTADKVTRSDGCPTSTSLPRPRDSIRSCALSMDQIPDLHSPMSPISESPSSPAYSTVTRVHAAPAAPSATALPASPVARRSSEPQLCPGSAPKTHGESDKGPHTSPSHTLGKASPSPSLSSYSDPDSGHYCQLQPPVRGSREWAATETSSQQARSYGERLKELSENGAPEGDWGKTFTVPIVEVTSSFNPATFQSLLIPRDNRPLEVGLLRKVKELLAEVDARTLARHVTKVDCLVARILGVTKEMQTLMGVRWGMELLTLPHGRQLRLDLLERFHTMSIMLAVDILGCTGSAEERAALLHKTIQLAAELRGTMGNMFSFAAVMGALDMAQISRLEQTWVTLRQRHTEGAILYEKKLKPFLKSLNEGKEGPPLSNTTFPHVLPLITLLECDSAPPEGPEPWGSTEHGVEVVLAHLEAARTVAHHGGLYHTNAEVKLQGFQARPELLEVFSTEFQMRLLWGSQGASSSQARRYEKFDKVLTALSHKLEPAVRSSEL", "partner": "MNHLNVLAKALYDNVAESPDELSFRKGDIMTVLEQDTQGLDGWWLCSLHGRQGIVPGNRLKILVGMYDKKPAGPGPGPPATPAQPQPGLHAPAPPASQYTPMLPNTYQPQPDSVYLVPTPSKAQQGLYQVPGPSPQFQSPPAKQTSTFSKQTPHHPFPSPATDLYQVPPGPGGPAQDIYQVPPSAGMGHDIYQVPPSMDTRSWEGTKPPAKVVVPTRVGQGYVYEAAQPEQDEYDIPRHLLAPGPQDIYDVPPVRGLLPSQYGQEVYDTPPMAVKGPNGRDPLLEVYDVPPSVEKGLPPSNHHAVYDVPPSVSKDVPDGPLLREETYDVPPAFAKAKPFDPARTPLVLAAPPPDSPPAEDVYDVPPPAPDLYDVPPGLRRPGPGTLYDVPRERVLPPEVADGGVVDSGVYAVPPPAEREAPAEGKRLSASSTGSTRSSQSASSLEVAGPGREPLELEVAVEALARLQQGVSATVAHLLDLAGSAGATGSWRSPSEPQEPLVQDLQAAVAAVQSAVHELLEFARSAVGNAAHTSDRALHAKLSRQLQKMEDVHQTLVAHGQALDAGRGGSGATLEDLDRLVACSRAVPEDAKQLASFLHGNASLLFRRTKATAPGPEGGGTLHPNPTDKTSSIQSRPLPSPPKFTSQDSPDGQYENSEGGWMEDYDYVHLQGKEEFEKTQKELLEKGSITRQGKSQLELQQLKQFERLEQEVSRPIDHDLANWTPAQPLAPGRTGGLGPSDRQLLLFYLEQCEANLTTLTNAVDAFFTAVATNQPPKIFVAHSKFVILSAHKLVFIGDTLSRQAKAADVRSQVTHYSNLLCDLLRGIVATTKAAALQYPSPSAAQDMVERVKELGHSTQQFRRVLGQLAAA"}, "B2": {"name": "Breast cancer anti-estrogen resistance protein 1 (Homo sapiens), P56945 (parent)", "chain": "B1 partner", "partner": "B1 chain"}, "B3": {"name": "Breast cancer anti-estrogen resistance protein 3 (Homo sapiens), O75815-1 (parent)", "chain": "MAAGKFASLPRNMPVNHQFPLASSMDLLSSRSPLAEHRPDAYQDVSIHGTLPRKKKGPPPIRSCDDFSHMGTLPHSKSPRQNSPVTQDGIQESPWQDRHGETFTFRDPHLLDPTVEYVKFSKERHIMDRTPEKLKKELEEELLLSSEDLRSHAWYHGRIPRQVSENLVQRDGDFLVRDSLSSPGNFVLTCQWKNLAQHFKINRTVLRLSEAYSRVQYQFEMESFDSIPGLVRCYVGNRRPISQQSGAIIFQPINRTVPLRCLEEHYGTSPGQAREGSLTKGRPDVAKRLSLTMGGVQAREQNLPRGNLLRNKEKSGSQPACLDHMQDRRALSLKAHQSESYLPIGCKLPPQSSGVDTSPCPNSPVFRTGSEPALSPAVVRRVSSDARAGEALRGSDSQLCPKPPPKPCKVPFLKVPSSPSAWLNSEANYCELNPAFATGCGRGAKLPSCAQGSHTELLTAKQNEAPGPRNSGVNYLILDDDDRERPWEPAAAQMEKGQWDKGEFVTPLLETVSSFRPNEFESKFLPPENKPLETAMLKRAKELFTNNDPKVIAQHVLSMDCRVARILGVSEEMRRNMGVSSGLELITLPHGHQLRLDIIERHNTMAIGIAVDILGCTGTLEDRAATLSKIIQVAVELKDSMGDLYSFSALMKALEMPQITRLEKTWTALRHQYTQTAILYEKQLKPFSKLLHEGRESTCVPPNNVSVPLLMPLVTLMERQAVTFEGTDMWEKNDQSCEIMLNHLATARFMAEAADSYRMNAERILAGFQPDEEMNEICKTEFQMRLLWGSKGAQVNQTERYEKFNQILTALSRKLEPPPVKQAEL", "partner": "B1 partner"}}}
{"variants_of": "B1", "conditions": "with bcar1_human BCAR1, P56945"}
{"variant": "L469R", "effect of a mutation on the interaction": "decreasing interaction"}
{"variant": "L623E", "effect of a mutation on the interaction": "disrupting interaction"}
{"variant": "R627E", "effect of a mutation on the interaction": "decreasing interaction"}
{"variants_of": "B1", "conditions": "with bcar1_human BCAR1, P56945", "remark": "another data set of the same source"}
{"variant": "L469R", "effect of a mutation on the interaction": "disrupting interaction"}
{"variants_of": "B2", "conditions": "with SH2D3C"}
{"variant": "L787E", "effect of a mutation on the interaction": "disrupting interaction"}
{"variant": "F794R", "effect of a mutation on the interaction": "disrupting interaction"}
{"variants_of": "B2", "conditions": "with SH2D3C", "remark": "another data set of the same source"}
{"variant": "L787E", "effect of a mutation on the interaction": "decreasing interaction"}
{"variant": "F794R", "effect of a mutation on the interaction": "decreasing interaction"}
{"variant": "D797R", "effect of a mutation on the interaction": "decreasing interaction"}
{"variant": "F794E;D797R", "effect of a mutation on the interaction": "disrupting interaction"}
{"variant": "L787E;F794R", "effect of a mutation on the interaction": "disrupting interaction"}
{"variants_of": "B3", "conditions": "with bcar1_human BCAR1, P56945"}
{"variant": "L744E", "effect of a mutation on the interaction": "disrupting interaction"}
{"variant": "R748E", "effect of a mutation on the interaction": "disrupting interaction"}
